Data as given in article PMC3553015 (2013).

B1: biotin-labeled AP2µ [modified: biotin (incorporated with Transcend Biotinylated tRNA during translation); biotin (incorporated with Transcend Biotinylated tRNA during translation)] [murine] / GST-21-mer of CD79a centered on Y193 [murine] (parent complex)
chain 1: MIGGLFIYNHKGEVLISRVYRDDIGRNAVDAFRVNVIHARQQVRSPVTNIARTSFFHVKRSNIWLAAVTKQNVNAAMVFEFLYKMCDVMAAYFGKISEENIKNNFVLIYELLDEILDFGYPQNSETGALKTFITQQGIKSQHQTKEEQSQITSQVTGQIGWRREGIKYRRNELFLDVLESVNLLMSPQGQVLSAHVSGRVVMKSYLSGMPECKFGMNDKIVIEKQGKGTADETSKSGKQSIAIDDCTFHQCVRLSKFDSERSISFIPPDGEFELMRYRTTKDIILPFRVIPLVREVGRTKLEVKVVIKSNFKPSLLAQKIEVRIPTPLNTSGVQVICMKGKAKYKASENAIVWKIKRMAGMKESQISAEIELLPTNDKKKWARPPISMNFEVPFAPSGLKVRYLKVFEPKLNYSDHDVIKWVRYIGRSGIYETRC
chain 2: EGLNLDDCSMYEDISRGLQGT
B2: biotin-labeled AP2µ [modified: biotin (incorporated with Transcend Biotinylated tRNA during translation); biotin (incorporated with Transcend Biotinylated tRNA during translation)] [murine] / GST-CD79a cytoplasmic domain [murine] (parent complex)
chain 1: B1 chain 1
chain 2: RKRWQNEKFGVDMPDDYEDENLYEGLNLDDCSMYEDISRGLQGTYQDVGNLHIGDAQLEKP
B3: biotin-labeled AP2µ [modified: biotin (incorporated with Transcend Biotinylated tRNA during translation); biotin (incorporated with Transcend Biotinylated tRNA during translation)] [murine] / GST-21-mer of CD79a centered on the membrane … (parent complex)
chain 1: B1 chain 1
chain 2: MPDDYEDENLYEGLNLDDCSM

Variants of: B1
Assay: in vitro binding of AP2µ-btn to bead-captured GST-21-mer; parent: 65; read off a plot

screen value	Variant
~50 % of full-length CD79a	chain 2 Y11A
~53 % of full-length CD79a	chain 2 Y11E

Variants of: B2
Assay: in vitro binding of AP2µ-btn to bead-captured GST fusion protein; parent: 100; read off a plot

Variant	percent of parent
chain 2 Y34E	~100 % of CD79a
chain 2 Y34A	~99 % of CD79a
chain 2 Y23A, chain 2 Y34A	~78 % of CD79a
chain 2 Y23A	~77 % of CD79a
chain 2 Y34A, chain 2 Y45A	~104 % of CD79a
chain 2 Y45A	~105 % of CD79a

Second part, the variant after the results:

percent of parent	Variant
~58 % of CD79a	chain 2 Y23E, chain 2 Y34E
~53 % of CD79a	chain 2 Y23A, chain 2 Y34A, chain 2 Y45A
~83 % of CD79a	chain 2 Y34E, chain 2 Y45E
~49 % of CD79a	chain 2 Y23E
~50 % of CD79a	chain 2 Y23A, chain 2 Y45A
~41 % of CD79a	chain 2 Y23E, chain 2 Y45E
~24 % of CD79a	chain 2 Y23E, chain 2 Y34E, chain 2 Y45E
~102 % of CD79a	chain 2 Y45E

Variants of: B3
Assay: in vitro binding of AP2µ-btn to bead-captured GST-21-mer; parent: 81; read off a plot

screen value	Variant
~42 % of full-length CD79a	chain 2 Y11E
~41 % of full-length CD79a	chain 2 Y11A
